In patent US20120148593A1 (published 2012):
Substitutions are numbered along the chain they refer to.

T1: recombinant soluble MD-2 purified from baculovirus-infected insect cell supernatants (Homo sapiens (Human), UniProt Q9Y6Y9 19-160)
T1 construct: not shown: C-terminal FLAG and 6xHIS tags
T1 chain: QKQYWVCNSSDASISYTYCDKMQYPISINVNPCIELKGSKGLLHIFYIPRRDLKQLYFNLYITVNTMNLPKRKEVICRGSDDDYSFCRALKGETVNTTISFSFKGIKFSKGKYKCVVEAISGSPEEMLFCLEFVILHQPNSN

T2: human MD-2 expressed in transfected HEK 293 cells (human, UniProt Q9Y6Y9 19-160)
T2 construct: also called MD-2 alone; wt MD-2
T2 chain: T1 chain

B1: mu18H10 murine monoclonal antibody (antibody, mouse IgG2b, V domains shown)
VH: QVQLQQSGADLVRPGALVKLSCTASGFNIKDSYIHWVKKRPEWGLEWIGWTDPENVNSIYDPRFQGKASITADTSSNTAFLQLTSLTSEDTAVYYCARGYNGVYYAMDYWGQGTTVTVSS
VL: QIVLTQSPSIMSASLGEEITLTCSASSSVIYMHWYQQKSGTSPKLLIYRTYNLASGVPSRFSGSGSGTFYSLTISSVEAEDAADYYCHQWSSFPYTFGGGTKLEIKR
B2: chimeric 7E3 MAb (antibody, V domains shown)
VH: QVTLKESGPGILQPSQTLSLTCSFSGFSLTTYNIGVGWIRQPSGKGLEWLAHIWWNDNIYYNTVLKSRLTFSKDTSNNQVFLKIASVDIADTATYYCIRMAEGRYDAMDYWGQGTSVTVSS
VL: AIQMTQSTSSLSASLGDRVTINCRASQDITNYLNWYQQKPDGTVRLLIYYTSKLHSGAPSRFSGRGSGTDYSLTISNLEQEDIATYFCQQGNTFPWTFGGGTKLEIKR
notes: also called 7E3 CHIM; 7E3 chimeric antibody
B3: chimeric 15C1 MAb (antibody, V domains shown)
VH: DVQLQESGPDLIQPSQSLSLTCTVTGYSITGGYSWHWIRQFPGNKLEWMGYIHYSGYTDFNPSLKTRISITRDTSKNQFFLQLNSVTTEDTATYYCARKDPSDGFPYWGQGTLVTVSA
VL: DIVMTQSPATLSVTPGDRVSLSCRASQSISDHLHWYQQKSHESPRLLIKYASHAISGIPSRFSGSGSGTDFTLSIKSVEPEDIGVYYCQNGHSFPLTFGAGTKLELKR
notes: also called 15C1 CHIM; 15C1 chimeric antibody
B4: chimeric 18H10 MAb (antibody, V domains shown)
VH: B1 VH
VL: B1 VL
notes: also called 18H10chim; 18H10 chimeric antibody
B5: hu15C1 4-28 QC 30/A26 variant (antibody, V domains shown)
VH: QVQLQESGPGLVKPSDTLSLTCAVSGYSISGGYSWHWIRQPPGKGLEWMGYIHYSGYTDFNPSLKTRITISRDTSKNQFSLKLSSVTAVDTAVYYCARKDPSDGFPYWGQGTLVTVSS
VL: EIVLTQSPDFQSVTPKEKVTITCRASQSISDHLHWYQQKPDQSPKLLIKYASHAISGVPSRFSGSGSGTDFTLTINSLEAEDAATYYCQNGHSFPLTFGGGTKVEIK
notes: also called 15C1 4-28° C.30/A26
B6: hu15C1 4-28 QC 69/A26 variant (antibody, V domains shown)
VH: B5 VH with S30T, I70M
VL: B5 VL
notes: also called 15C1 4-28° C.69/A26
B7: hu15C1 4-28 QC 48/A26 variant (antibody, V domains shown)
VH: B5 VH with S30T, M49I
VL: B5 VL
notes: also called 15C1 4-28° C.48/A26
B8: hu15C1 4-28 QC 67/A26 variant (antibody, V domains shown)
VH: B5 VH with S30T, I68V
VL: B5 VL
notes: also called 15C1 4-28° C.67/A26
B9: mu7E3 murine monoclonal antibody (antibody, mouse IgG1, V domains shown)
VH: B2 VH
VL: B2 VL
B10: mu16G7 murine monoclonal antibody (antibody, mouse IgG1, V domains shown)
VH: QVKLQESGAELMKPGASVKISCKATGYKFSDYWIEWIKQRPGHGLEWIGEILPGSGSTNYNEDFKDKATFTSDTSSNTAYMQLSSLTSEDSAVYYCAKEERAYYFGYWGQGTTVTVSS
VL: DVEMTQTPLSLPVSLGDQASISCRSSQSLENSNGNTYLNWYLQKPGQSPQLLIYRVSNRFSGVLDRFSGSGSGTDFTLKISRVEAEDLGVYFCLQVTHVPPTFGAGTKLELKR
B11: mu15C1 murine monoclonal antibody (antibody, mouse IgG1, V domains shown)
VH: B3 VH
VL: B3 VL

Target: T1, recombinant soluble MD-2 purified from …
Assay: direct ELISA, MD-2 coated at 5 µg/ml
Protocol: Recombinant soluble MD-2 with C terminal FLAG and histidine epitope tags was coated at a concentration of 5 μg/ml in 50 μl PBS on ELISA plates (Nunc Maxisorp). Wells were blocked with 200 μl PBS 2% BSA and subsequently incubated with the appropriate MAb at the indicated concentration in PBS 1% BSA. Following 3 wash steps with PBS 0.05% Tween 20, 50 μl HRP conjugated goat anti-mouse IgG (H+L) at a 1:5000 dilution was added to the wells. […] Plates were read at a wavelength of 650 nm.
Using direct ELISA, no binding of mu18H10 to recombinant soluble MD-2 generated with the baculovirus expression system was detected (FIG. 5a).

Binder	binding result
B1	no binding

Target: T3, human TLR4/MD-2 receptor complex expressed on transfected cells (human, UniProt O00206 24-839; Q9Y6Y9 19-160)
T3 construct: Tags differ by cell line: CHO-K1: N-terminal c-myc on TLR4, C-terminal c-Myc and Protein C on MD-2; also called TLR4/MD-2 complex; hTLR4/MD-2
Assay: flow cytometry, TLR4/MD-2 transfected CHO cells
Protocol: FIG. 41 is a graph depicting that the hu15C1 humanized antibody that includes VH 4-28 shown in SEQ ID NO:45 (“15C1 4-28/A26”) and variants thereof in which residues at chosen positions have been replaced by the corresponding amino acid in the given human germline (“15C1 4-28° C.30/A26”; “15C1 4-28° C.48/A26”; “15C1 4-28° C.67/A26” and “15C1 4-28° C.69/A26”, see TABLE 1) are capable of binding specifically to the human TLR4/MD-2 complex on the surface of transfected CHO cells. MAb binding to the TLR4/MD-2 transfected CHO cells is shown by flow cytometry using the hu15C1 antibodies or the chimeric 15C1 (“15C1 CHIM”) (described above) at the concentrations indicated. Binding is measured as a cellular Mean Fluorescence Intensity (MFI) value.

Binder	binding result
B2	binds
B3	binds
B4	binds
B5	binds
B6	binds
B7	binds
B8	binds

Target: T2, human MD-2 expressed in transfected HEK …
Assay: sandwich ELISA, capture on anti-FLAG M2, biotinylated mu18H10
Protocol: For sample preparation, HEK 293 cells were transfected with the appropriate plasmid constructs using the Fugene 6™ transfection reagent as described in paragraph G above. 48 hours post-transfection, cells were collected and cleared by centrifugation. Cells were subsequently incubated with biotinylated mu18H10 (10 μg/ml) and lysed in 20 mM Tris pH 7.4, 150 mM NaCl, 1% NP40 containing COMPLETE™ protease inhibitors (Roche).
To perform the sandwich ELISA, Nunc maxisorp plate wells were coated with 50 μl of the anti-FLAG™ M2 MAb (Sigma) at a concentration of 5 μg/ml in PBS. Wells were blocked with 200 μl PBS 2% BSA and subsequently incubated with 50 μl of the appropriate samples at the indicated dilution. Wells were washed three times with 200 μl PBS 0.05% Tween 20 and incubated with 50 μl of the appropriate antibody (10 μg/ml for biotinylated mu18H10 and 12D4, 1 μg/ml for the polyclonal […]). Following a wash step as above, wells were incubated with 50 μl of the appropriate detection antibody (HRP conjugated streptavidin at a dilution of 1:1500 for the biotinylated MAbs and HRP conjugated anti-rabbit IgG (H+L) at a dilution of 1:5000 for the polyclonal rabbit Ab). […] Plates were read at a wavelength of 650 nm.

Binder	binding result
B1	no binding (tested: 10 µg/ml)

Target: T3, human TLR4/MD-2 receptor complex …
Assay: flow cytometry, mock transfected vs TLR4/MD-2 transfected cells
Target sequence in this assay (O00206 24-839 limits assumed, chain 1 of 2, one chain of several): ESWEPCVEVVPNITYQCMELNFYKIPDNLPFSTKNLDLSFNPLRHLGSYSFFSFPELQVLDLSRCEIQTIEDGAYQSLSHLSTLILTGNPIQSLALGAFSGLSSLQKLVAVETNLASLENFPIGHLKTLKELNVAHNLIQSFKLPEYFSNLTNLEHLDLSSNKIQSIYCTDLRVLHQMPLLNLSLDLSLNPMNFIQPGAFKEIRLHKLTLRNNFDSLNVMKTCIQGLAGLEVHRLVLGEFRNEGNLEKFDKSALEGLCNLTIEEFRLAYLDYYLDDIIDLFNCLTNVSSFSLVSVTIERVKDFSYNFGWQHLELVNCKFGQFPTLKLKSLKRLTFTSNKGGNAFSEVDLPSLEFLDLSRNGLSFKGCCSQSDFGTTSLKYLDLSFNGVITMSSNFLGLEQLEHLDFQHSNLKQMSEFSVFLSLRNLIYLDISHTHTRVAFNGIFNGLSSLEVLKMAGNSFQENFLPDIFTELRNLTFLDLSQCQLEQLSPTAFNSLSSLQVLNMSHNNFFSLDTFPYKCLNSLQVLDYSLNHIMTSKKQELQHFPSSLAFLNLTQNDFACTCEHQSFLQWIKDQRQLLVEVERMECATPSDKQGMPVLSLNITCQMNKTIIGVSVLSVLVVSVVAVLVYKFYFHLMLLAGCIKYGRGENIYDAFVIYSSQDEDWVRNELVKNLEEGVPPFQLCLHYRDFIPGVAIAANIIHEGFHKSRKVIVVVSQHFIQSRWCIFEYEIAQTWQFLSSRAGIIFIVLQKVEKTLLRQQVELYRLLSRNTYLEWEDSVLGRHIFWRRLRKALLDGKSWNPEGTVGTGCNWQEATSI

Binder	binding result
B9	binds
B10	binds
B11	binds
B1	binds
